Results from patent publication US20190134153A1, “IMMUNOMODULATORY EFFECT OF INHALED KINASE INHIBITOR PEPTIDES IN LUNG” (MOERAE MATRIX, INC., priority 2017, published 2019).

Key:
Assay in all cases: Kinase Profiling Assay
Type in all cases: biochemical
Conditions in all cases: 100 μM
SAPK2b(h) = SAPK2b(h) (Homo sapiens, UniProt Q15759)
Abl(h) = Abl(h) (Homo sapiens, UniProt P00519)
MARK1(h) = MARK1(h) (Homo sapiens, UniProt Q9P0L2)
Aurora-B(h) = Aurora-B(h) (Homo sapiens, UniProt Q96GD4)
PKCζ(h) = target: T1, PKCζ(h) (Homo sapiens, UniProt Q05513)
T1 sequence (Q05513 1-592): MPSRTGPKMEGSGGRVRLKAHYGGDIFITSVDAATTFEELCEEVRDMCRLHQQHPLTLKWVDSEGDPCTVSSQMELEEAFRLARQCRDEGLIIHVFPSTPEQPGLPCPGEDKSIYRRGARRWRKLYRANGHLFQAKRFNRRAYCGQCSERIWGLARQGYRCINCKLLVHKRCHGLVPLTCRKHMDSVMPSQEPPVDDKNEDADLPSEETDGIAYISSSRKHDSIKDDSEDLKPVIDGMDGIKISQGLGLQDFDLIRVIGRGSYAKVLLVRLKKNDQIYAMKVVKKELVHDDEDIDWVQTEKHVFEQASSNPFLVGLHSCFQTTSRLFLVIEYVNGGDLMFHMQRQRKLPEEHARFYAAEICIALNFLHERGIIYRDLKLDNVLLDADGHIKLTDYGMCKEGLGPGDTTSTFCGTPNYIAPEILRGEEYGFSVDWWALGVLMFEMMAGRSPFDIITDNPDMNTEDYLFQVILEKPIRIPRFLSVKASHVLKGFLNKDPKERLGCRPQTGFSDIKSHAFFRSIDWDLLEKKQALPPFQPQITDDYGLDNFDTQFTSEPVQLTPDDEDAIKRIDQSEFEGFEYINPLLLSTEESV

PrKX(h) = target: T2, PrKX(h) (Homo sapiens, UniProt P51817)
T2 sequence (P51817 1-358): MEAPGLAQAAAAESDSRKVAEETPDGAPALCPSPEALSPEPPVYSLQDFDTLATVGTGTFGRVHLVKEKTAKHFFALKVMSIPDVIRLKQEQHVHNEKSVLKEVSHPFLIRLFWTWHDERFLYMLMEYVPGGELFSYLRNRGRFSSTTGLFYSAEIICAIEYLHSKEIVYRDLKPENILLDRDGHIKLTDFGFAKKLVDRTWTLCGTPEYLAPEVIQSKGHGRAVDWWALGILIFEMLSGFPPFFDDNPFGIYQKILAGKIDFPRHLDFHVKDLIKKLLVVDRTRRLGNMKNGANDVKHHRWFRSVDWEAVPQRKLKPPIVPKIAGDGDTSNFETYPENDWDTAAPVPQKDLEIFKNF

IRAK4(h) = target: T3, IRAK4(h) (Homo sapiens, UniProt Q9NWZ3)
T3 sequence (Q9NWZ3 1-460): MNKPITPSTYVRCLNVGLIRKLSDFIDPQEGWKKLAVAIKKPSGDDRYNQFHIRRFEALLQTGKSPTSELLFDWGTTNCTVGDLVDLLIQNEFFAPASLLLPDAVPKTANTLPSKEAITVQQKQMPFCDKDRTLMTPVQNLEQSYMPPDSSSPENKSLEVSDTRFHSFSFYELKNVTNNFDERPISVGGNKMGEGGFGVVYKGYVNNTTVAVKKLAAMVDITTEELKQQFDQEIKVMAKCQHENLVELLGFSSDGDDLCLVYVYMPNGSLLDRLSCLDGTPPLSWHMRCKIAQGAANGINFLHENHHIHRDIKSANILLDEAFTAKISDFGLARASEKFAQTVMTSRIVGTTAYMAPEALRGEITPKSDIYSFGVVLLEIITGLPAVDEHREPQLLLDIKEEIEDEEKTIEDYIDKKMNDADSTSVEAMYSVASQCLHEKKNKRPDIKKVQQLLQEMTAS

PDGFRα(h) = PDGFRα(h) (Homo sapiens, UniProt P16234)
Mer(h) = target: T4, Mer(h) (Homo sapiens, UniProt Q12866)
T4 sequence (Q12866 21-999): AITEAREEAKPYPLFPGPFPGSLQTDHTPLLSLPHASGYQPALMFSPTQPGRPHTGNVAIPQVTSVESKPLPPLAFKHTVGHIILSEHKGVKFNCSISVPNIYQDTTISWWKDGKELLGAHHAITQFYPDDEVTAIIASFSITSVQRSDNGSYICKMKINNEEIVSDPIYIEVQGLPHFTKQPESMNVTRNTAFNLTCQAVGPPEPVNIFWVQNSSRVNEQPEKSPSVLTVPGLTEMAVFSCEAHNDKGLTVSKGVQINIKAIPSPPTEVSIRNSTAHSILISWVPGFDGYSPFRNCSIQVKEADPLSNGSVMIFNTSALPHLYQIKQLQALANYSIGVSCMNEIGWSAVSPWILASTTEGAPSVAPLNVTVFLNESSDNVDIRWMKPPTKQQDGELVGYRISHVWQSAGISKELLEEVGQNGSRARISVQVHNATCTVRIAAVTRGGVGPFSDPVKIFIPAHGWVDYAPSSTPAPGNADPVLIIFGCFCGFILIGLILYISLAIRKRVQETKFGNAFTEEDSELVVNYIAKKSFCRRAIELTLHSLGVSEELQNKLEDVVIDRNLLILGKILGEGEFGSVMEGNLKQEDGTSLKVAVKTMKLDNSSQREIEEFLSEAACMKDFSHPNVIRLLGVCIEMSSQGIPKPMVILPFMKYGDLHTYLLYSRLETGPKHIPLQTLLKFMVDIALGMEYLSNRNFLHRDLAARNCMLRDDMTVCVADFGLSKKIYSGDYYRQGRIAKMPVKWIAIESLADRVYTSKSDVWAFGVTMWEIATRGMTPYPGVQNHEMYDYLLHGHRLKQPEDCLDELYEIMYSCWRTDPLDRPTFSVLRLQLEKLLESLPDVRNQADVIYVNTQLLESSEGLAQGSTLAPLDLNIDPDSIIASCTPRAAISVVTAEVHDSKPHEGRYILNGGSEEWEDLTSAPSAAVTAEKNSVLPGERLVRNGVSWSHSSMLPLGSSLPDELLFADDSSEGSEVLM

Abl(h), sequence (P00519 whole entry): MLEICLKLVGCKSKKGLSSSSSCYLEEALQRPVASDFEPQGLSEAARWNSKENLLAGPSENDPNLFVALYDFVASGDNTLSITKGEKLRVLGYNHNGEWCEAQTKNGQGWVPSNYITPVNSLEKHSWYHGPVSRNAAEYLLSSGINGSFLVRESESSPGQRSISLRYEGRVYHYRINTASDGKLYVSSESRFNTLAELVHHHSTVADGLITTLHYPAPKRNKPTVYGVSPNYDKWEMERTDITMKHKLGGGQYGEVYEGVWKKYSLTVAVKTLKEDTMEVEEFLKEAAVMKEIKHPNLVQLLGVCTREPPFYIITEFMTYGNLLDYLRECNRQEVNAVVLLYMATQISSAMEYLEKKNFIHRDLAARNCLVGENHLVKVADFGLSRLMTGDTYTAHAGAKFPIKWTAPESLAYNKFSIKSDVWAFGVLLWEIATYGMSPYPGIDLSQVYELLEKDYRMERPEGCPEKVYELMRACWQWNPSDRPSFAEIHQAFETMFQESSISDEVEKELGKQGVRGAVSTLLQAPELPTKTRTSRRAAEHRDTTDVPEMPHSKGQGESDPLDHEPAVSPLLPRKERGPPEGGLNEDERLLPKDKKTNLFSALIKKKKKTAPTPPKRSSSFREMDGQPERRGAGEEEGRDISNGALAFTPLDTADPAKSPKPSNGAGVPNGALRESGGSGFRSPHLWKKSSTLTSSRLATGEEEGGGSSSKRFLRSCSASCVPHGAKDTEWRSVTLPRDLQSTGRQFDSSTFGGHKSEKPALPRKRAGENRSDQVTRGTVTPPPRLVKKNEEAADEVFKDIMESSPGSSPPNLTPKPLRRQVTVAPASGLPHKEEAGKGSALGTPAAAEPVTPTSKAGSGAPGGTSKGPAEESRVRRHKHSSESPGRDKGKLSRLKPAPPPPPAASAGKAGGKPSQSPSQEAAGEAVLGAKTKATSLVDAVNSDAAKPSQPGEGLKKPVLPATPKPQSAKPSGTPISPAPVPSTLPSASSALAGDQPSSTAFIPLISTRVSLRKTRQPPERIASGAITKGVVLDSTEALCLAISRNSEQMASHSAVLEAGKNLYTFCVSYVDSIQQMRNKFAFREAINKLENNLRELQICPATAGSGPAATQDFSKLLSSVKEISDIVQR
PDGFRα(h), sequence (P16234 24-1089): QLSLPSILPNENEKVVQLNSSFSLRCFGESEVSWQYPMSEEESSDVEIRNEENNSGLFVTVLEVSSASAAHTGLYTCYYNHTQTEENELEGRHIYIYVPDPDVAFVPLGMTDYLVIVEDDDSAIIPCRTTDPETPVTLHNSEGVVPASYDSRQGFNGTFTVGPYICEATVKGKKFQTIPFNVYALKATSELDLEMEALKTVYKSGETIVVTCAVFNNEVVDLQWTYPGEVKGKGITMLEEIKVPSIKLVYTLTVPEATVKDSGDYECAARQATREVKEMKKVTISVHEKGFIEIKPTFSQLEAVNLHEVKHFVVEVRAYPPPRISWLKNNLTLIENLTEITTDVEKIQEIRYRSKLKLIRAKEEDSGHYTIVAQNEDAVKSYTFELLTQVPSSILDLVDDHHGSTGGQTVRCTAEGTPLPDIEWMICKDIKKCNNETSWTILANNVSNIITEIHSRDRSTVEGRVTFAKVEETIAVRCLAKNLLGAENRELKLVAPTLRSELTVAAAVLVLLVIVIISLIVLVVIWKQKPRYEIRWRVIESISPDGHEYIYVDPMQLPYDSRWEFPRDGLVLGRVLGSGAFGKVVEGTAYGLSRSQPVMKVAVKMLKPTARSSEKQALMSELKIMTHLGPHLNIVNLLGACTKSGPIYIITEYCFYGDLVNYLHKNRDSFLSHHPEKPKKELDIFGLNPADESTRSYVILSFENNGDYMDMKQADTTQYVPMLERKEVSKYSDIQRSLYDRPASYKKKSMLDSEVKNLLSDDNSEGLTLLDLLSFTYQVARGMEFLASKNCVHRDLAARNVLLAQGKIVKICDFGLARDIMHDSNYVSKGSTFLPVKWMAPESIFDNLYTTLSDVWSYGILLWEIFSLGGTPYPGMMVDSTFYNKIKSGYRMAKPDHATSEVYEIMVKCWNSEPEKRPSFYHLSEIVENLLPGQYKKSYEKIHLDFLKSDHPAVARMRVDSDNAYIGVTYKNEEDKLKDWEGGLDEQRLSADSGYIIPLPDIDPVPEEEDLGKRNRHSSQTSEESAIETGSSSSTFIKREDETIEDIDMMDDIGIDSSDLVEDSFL
SAPK2b(h), sequence (Q15759 whole entry): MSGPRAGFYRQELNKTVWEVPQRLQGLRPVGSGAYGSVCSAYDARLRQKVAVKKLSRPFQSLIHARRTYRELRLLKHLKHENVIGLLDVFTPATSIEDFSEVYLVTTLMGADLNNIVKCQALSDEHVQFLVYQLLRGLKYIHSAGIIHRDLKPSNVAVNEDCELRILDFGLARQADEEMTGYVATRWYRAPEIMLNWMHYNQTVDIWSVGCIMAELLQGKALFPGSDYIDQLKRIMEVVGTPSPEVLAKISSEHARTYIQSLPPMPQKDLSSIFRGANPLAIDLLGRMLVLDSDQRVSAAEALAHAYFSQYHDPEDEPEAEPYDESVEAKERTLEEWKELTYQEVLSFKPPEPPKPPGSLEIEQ
Aurora-B(h), sequence (Q96GD4 whole entry): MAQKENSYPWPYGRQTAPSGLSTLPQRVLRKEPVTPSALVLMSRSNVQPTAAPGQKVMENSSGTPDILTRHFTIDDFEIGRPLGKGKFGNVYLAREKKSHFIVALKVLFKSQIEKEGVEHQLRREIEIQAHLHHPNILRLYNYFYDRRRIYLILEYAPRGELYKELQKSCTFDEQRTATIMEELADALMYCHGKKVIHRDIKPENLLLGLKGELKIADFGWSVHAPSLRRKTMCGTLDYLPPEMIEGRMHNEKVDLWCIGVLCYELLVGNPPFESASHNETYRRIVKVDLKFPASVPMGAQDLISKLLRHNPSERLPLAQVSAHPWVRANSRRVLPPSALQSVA
MARK1(h), sequence (Q9P0L2 whole entry): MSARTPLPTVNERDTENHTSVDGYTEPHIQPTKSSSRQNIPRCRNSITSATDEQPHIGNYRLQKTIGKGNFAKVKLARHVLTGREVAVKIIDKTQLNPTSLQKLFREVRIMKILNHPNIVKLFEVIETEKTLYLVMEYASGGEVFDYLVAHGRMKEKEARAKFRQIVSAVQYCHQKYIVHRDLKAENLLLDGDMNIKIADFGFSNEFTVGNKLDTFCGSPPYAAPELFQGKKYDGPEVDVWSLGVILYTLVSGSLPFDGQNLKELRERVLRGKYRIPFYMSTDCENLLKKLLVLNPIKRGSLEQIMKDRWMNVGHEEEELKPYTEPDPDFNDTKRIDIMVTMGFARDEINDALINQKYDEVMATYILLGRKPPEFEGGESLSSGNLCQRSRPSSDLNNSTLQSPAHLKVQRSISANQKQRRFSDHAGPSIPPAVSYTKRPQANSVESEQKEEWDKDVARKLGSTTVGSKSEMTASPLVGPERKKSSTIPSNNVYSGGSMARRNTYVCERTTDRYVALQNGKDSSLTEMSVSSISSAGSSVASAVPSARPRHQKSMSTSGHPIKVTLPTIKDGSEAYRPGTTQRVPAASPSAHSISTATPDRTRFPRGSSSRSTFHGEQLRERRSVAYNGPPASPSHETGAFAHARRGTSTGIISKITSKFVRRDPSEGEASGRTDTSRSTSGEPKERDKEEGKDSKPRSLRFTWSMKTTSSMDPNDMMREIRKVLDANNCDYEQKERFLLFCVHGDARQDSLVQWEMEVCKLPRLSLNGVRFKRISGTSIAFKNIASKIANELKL

Row | Sequence | % activity (SAPK2b(h)) [%] | % activity (Abl(h)) [%] | % activity (MARK1(h)) [%] | % activity (Aurora-B(h)) [%] | % activity (PKCζ(h)) [%] | % activity (PrKX(h)) [%] | % activity (IRAK4(h)) [%] | % activity (PDGFRα(h)) [%] | % activity (Mer(h)) [%]
1 | FAKLAARLYRKALARQLGVAA [MMI-0300] | 81 | 69 | 132 | 128 | 81 | 61 | 59 | 65 | 52
2 | KAFAKLAARLYRKALARQLGVAA [MMI-0400] | 82 | 84 | 120 | 150 | 75 | 76 | 59 | 40 | 50
3 | YARAAARQARAKALNRQLGVA [MMI-0200] | 95 |  |  | 166 | 98 |  | 110 | 108 | 90
4 | HRRIKAWLKKIKALARQLGVAA [MMI-0500] | 42 | 16 | 110 | 5 | 7 | 57 | 3 | 40 | 17
